Series [1] has as its target thyroid-stimulating hormone (TSH) receptor (human) (UniProt P16473). Briefly: flow cytometry, human PBMC gated on CD19+ B cells; CGH-biotin 10 ug/ml then streptavidin-PE; background without CGH-biotin 3.8. Background: Flow cytometry measures light scatter and fluorescence of single cells or particles in a stream.
Series [2] has the same target. Briefly: flow cytometry, human PBMC gated on CD4+ CD45RA- memory CD4+ T cells; CGH-biotin 10 ug/ml then streptavidin-PE; background without CGH-biotin 3.4.
Series [3] shares this target. The series can be described thus: flow cytometry, human PBMC gated on CD4+ CD45RA+ naive CD4+ T cells; CGH-biotin 10 ug/ml then streptavidin-PE; background without CGH-biotin 3.5.
The target is the same in series [4]. The series can be described thus: flow cytometry, human PBMC gated on CD14+ monocytes; CGH-biotin 10 ug/ml then streptavidin-PE; background without CGH-biotin 9.1.
Series [5] shares this target. Briefly: flow cytometry, human PBMC gated on CD56+ NK cells; CGH-biotin 10 ug/ml then streptavidin-PE; background without CGH-biotin 3.6.
The target is the same in series [6]. The series can be described thus: flow cytometry, human PBMC gated on CD3+ T cells; CGH-biotin 10 ug/ml then streptavidin-PE; background without CGH-biotin 4.3.
Series [7] has as its target thyroid-stimulating hormone (TSH) receptor (human), P16473. The series can be described thus: cell-based or functional assay.
Series [8] deals with LPS-induced mild endotoxemia mouse model. Briefly: LPS-induced mild endotoxemia mouse model, serum cytokines by ELISA. Conditions: for effect on serum IL-6 levels / effect on serum TNFα levels: 2 mg/kg of the monomer, data not shown. In kind it is in vivo, C57B1/6 mice. As to the method:
An in vivo experiment was designed to examine the effect of CGH in a mouse model of LPS-induced mild endotoxemia. This model mimics acute endotoxemia/sepsis by challenging mice with a low, non-lethal dose of bacterial endotoxin (lipopolysaccharide, LPS). Serum is collected at various timepoints (1-8 hours) after intraperitoneal LPS injection and analyzed for altered expression of a wide variety of pro- and anti-inflammatory cytokines and acute phase proteins that mediate the inflammatory response. The model provides a means to assess the potential anti-inflammatory effects of therapeutic candidates during a robust inflammatory response. To initially assess the model, we measured proinflammatory cytokines in a pilot experiment to collect reference data for the model.
C57B1/6 mice (Charles River Laboratories; 5 mice/group) were treated i.p. with PBS, 0.2 mg/kg CGH in PBS, or 2 mg/kg CGH in PBS 1 hour prior to LPS challenge. The mice were then challenged with 25 ug of LPS i.p. and bled at 1 hour and 4 hours after LPS injection. Serum was analyzed for TNFα (1 hour) and IL-6 (4 hours) levels by ELISA.
To determine if CGH would potentiate the effect of a sub-maximal dose of glucocorticoid, groups of 10 C57B1/6 mice each were treated i.p. with PBS, 0.15 or 1.5 mg/kg Dex, 2 mg/kg CGH, or a combination of CGH and low or high doses of Dex, 1 hour prior to injection of 25 ug LPS i.p. As shown in TABLE 3 (Expt #2), either 2 mg/kg CGH or 1.5 mg/kg Dex treatment alone (1 hour prior to LPS) caused a significant drop in serum TNFα levels at 1 hour, as observed in previous experiments. The effects of CGH administered in conjunction with Dex on inhibition of TNFα production were greater than either dose of Dex alone.
For orientation: ELISA stands for enzyme-linked immunosorbent assay.

For series [9], the target named is T1, glycoprotein hormone beta 5 (GPHB5) (human, UniProt Q86YW7 25-130, one N-linked glycosylation (site not stated)).
T1 construct: Subunit co-expressed with GPHA2 in CHO cells; also called beta subunit of CGH
T1 sequence: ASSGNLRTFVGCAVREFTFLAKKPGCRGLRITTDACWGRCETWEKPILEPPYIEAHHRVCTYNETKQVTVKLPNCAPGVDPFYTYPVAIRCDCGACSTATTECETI
Briefly: co-expression in CHO cells (Example 5).

In series [10] the test system is thymus. The arrangement: species or system C57B1/6 mice. The following applies: mouse, in vivo. An excerpt: Since the receptor for CGH, TSH-R, is expressed by the adrenal glands, there was concern that the anti-inflammatory effects observed might be an indirect effect of increasing endogenous corticosteroid production in CGH-treated mice. One well-established side effect of increasing either exogenous or endogenous corticosteroid levels is substantial atrophy of the thymus, as the developing T cells are induced to undergo apoptosis. Therefore, the thymuses of the CGH and Dex-treated mice in the DTH experiments were analyzed. […] Thus, CGH seems to be mediating its anti-inflammatory effects in a manner distinct from that of exgenous glucocorticoids like Dex.

The subject of series [11] is adrenal cortex. The series can be described thus: Adenoviral overexpression of CGH in mice, adrenal gland histopathology. The format is in vivo, C57BL6 mice. Conditions: GPHA2- and GPHB5-expressing adenovirus by tail vein, day 20, all eight mice. The text has this:
Summary: Mice were exposed to CGH through infection with adenovirus particles expressing GPHA2 and GPHB5, leading to overexpression and secretion of CGH from the liver of these animals. […] The hypertrophy was apparent in the inner cortical layers, the zona fasciculata and the zona reticularis. Similarly, mice were exposed to CGH through intraperitoneal injection of recombinant CGH protein alone, recombinant CGH protein along with the glucocorticoid Dexamethasone (Dex), Dex alone, or PBS alone daily for two weeks.
Each group consisted of eight female C57BL6 mice. 7.5×10^11 particles each of GPHA2- and GPHB5-expressing adenovirus were administered by tail vein injection to the experimental group, while 1.5×10^11 particles of adenovirus expressing a parental vector alone were administered to the control group. Animals were sacrificed on day 20 following the injection and tissues were evaluated by a pathologist.

In series [12] the target is T2, TSHR (Homo sapiens, UniProt P16473).
T2 construct: In adipose cells, sub-nanomolar levels of CGH stimulate release of free fatty acids (FFA); endogenous in cells
Briefly: Release of free fatty acids (FFA) from adipose cells. In kind it is cell-based.

For series [13], the system named is NCI-H295R. Briefly: CRE-luciferase reporter assay of cAMP-mediated gene induction in adrenal cortex cells. The format is cell-based, human. Conditions: purified CGH heterodimer. An excerpt:
Summary: A human adrenal cortex cell line, NCI-H295R, was used to study signal transduction of CGH. NCI-H295R was transduced with recombinant adenovirus containing a reporter construct, a firefly luciferase gene under the control of cAMP response element (CRE) enhancer sequences. This assay system detects cAMP-mediated gene induction downstream of activation of Gs-coupled GPCR's (G-protein coupled receptors). […] Typically, CGH elicited a maximal response of 15-40-fold luciferase induction above control media.
NCI-H295R cells were obtained from the ATCC (CRL-2128, Manassas, Va.) and cultured in growth medium as follows: 1:1 mixture of Dulbecco's modified Eagle's medium and Ham's F12 medium with L-glutamine (D-MEM/F-12; GIBCO, cat.# 11320-033) containing 25 mM HEPES buffer (GIBCO, Invitrogen, Carlsbad, Calif., cat.# 15630-080), 1 mM sodium pyruvate (GIBCO, cat.# 11360-070), 1% ITS+1 media supplement (Sigma St. Louis, Mo. cat# 12521) and 2.5% Nu-Serum I (BD Biosciences, Lexington, Ky. cat.#355100). Cells were cultured at 37° C. in a 5% CO2 humidified incubator. […]
Promega's Luciferase Assay System (Promega, Madison, Wis., cat. # E1500) was used to process the treated cells. […] Luciferase activity was measured on a microplate luminometer (PerkinElmer Life Sciences, Inc., model LB 96V2R) following automated injection of luciferase assay substrate.
For orientation: Reporter assays use an easily measured gene product as a stand-in for the process of interest.

In series [14] the test system is neutrophils infiltrating the ears. Briefly: Neutrophil infiltration in ears of DTH mice, anti-Gr-1 immunohistochemistry and histomorphometry. In kind it is in vivo, C57B1/6 mice. The following applies: anti-Gr-1 staining, DTH experiment #1. The procedure:
Ears from mice in DTH experiment #1 were analyzed by immunohistochemistry to assess which cell types were most affected by CGH treatment. Ears were fixed in Zinc/Tris buffer (2.3 mM calcium acetate/31.6 mM zinc acetate/36.7 mM zinc chloride in 0.1M Tris-HCL buffer, pH 7.4) for 24 hours at room temperature and stained with antibodies specific for CD4, CD8, CD11c, and Gr-1 (neutrophils). […] Ears were stained using a TechMate 500 autoimmunostainer (Biotech/Ventana) MIP protocol with some modifications. After drying the slides for 1 hour at 60° C., the sections were stained with a rat anti-mouse Gr-1 mAb (clone 7/4, Serotec, isotype rat IgG2a, used at 1.25 ug/ml final dilution), overnight at 4° C. This step was followed, after a wash, by biotinylated rabbit anti-rat IgG secondary antibody (Dako, used at 10 ug/ml in PBS with 2% normal rabbit serum and 2% nonfat dry milk) for 45 min. The sections were then washed and treated with HP Block (1.5% H2O2 in 50% methanol) 3 times, 7 min each, followed by 25 min in avidin-biotin complex, 3 times of 4 min each in DAB (Diaminobenzidine), then with Methyl green for 10 min.
Histomorphometry was performed to obtain the average pixel density of neutrophils per unit length (1 mm) present in the ear samples. […]

Setting [15] is: 2 mg/kg CGH 1 hour prior to LPS, Expt #1.

thyroid-stimulating hormone (TSH) receptor (human), sequence (P16473 21-764): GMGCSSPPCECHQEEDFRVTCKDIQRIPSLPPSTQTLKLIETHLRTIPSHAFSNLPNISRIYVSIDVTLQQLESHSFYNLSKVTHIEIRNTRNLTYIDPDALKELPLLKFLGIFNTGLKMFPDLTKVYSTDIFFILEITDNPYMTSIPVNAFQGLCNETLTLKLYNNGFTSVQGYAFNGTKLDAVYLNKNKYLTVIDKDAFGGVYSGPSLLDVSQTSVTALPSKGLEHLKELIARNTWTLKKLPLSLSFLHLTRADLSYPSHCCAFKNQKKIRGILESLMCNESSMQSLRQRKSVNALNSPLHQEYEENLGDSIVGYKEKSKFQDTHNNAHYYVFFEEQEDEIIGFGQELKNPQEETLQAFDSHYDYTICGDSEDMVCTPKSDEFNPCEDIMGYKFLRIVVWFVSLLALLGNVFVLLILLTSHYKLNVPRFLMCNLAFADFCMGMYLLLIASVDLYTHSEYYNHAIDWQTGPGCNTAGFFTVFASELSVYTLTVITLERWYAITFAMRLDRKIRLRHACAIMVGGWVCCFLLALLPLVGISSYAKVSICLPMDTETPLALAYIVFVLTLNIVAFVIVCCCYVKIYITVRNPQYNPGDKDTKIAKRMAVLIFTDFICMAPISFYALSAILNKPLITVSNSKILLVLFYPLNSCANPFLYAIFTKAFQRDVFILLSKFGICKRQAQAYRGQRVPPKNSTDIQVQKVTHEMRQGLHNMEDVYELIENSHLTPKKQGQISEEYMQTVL
thyroid-stimulating hormone (TSH) receptor (human), P16473, sequence (P16473 21-764): as above
T2 sequence (P16473 21-764, species assumed): as the sequence (P16473 21-764) above

Turning to “CGH-biotin (biotinylated corticotroph-derived glycoprotein hormone) (from UniProt Q96T91 24-129; Q86YW7 25-130) (ligand)”, the FL-2 MFI turned out to be 12.9 MFI in series [1]; 8.7 MFI in [2]; 4.9 MFI in series [3]; 56.4 MFI in series [4]; 11.9 MFI in [5]; 9.1 MFI in [6].

B1: Corticotroph-derived glycoprotein hormone (CGH), purified recombinant heterodimer, Q96T91 24-129; Q86YW7 25-130 (ligand)
chain 1: QEAVIPGCHLHPFNVTVRSDRQGTCQGSHVAQACVGHCESSAFPSRYSVLVASGYRHNITSVSQCCTISGLKKVKVQLQCVGSRREELEIFTARACQCDMCRLSRY
chain 2: T1 sequence
modifications: here or on the partner: one N-linked glycosylation on the GPHB5 subunit (site not stated); two N-linked glycosylations on the GPHA2 subunit (sites not given)
In series [7], B1 showed a CRE-driven luciferase reporter induction (cAMP-mediated) in NCI-H295R human adrenal cortex cells of 15 to 40 fold.

B2: zlut1: monomer of CGH tested alone; not defined further, presumably the GPHB5 beta subunit (protein, UniProt Q86YW7 25-130, looked up)
Glycoprotein hormone beta-5: T1 sequence
Consider B2, for which, in series [8], the “effect on serum IL-6 levels” value is listed as “neither of these monomers had any effect” and the “effect on serum TNFα levels” value was “neither of these monomers had any effect”.

B3: glycoprotein hormone alpha2 (GPHA2) (ligand)
chain: B1 chain 1
modifications: two N-linked glycosylations (sites not given)
notes: Subunit co-expressed with GPHB5 in CHO cells; also called Zsig51; zsig51
With B3, the binding result in series [9] is “binds”.

B4: CGH: heterodimeric protein hormone of alpha subunit GPHA2 (SEQ ID NO:3) and beta subunit GPHB5 (SEQ ID NO:6) (protein, listed as Homo sapiens)
alpha: B1 chain 1
beta: T1 sequence
With B4, the “relative proportion of each thymocyte subset compared with the PBS-treated group” value in [10] is recorded as “not significantly different”. The “histomorphological changes of the inner adrenal cortical cells” value in [11] was “profound hypertrophy and uniformly finely, foamy vacuolization”. Besides, in series [12], the “levels that stimulate release of free fatty acids (FFA)” value is given as “sub-nanomolar”. Besides, the “molar concentration stimulating release of FFA, lower compared to TSH” value in series [12] (compared to TSH) came out at 10 fold. The “dose-dependent induction of luciferase activity compared with 10 μM forskolin” value in series [13] is listed as “equal to or higher than that induced by 10 μM forskolin”. Also, in series [8] (setting [15]), the “increase of serum IL-6 levels at the 4 hour time point” value is reported as “about 70%” and the “reduction of the TNFα induction at the 1 hour time point” value is reported as “about 60%”. For the same molecule, in series [14], the “number of neutrophils infiltrating the ears compared to the PBS-treated controls” value is listed as “clear reduction”.

B5: zsig51: alpha subunit of CGH, glycoprotein hormone alpha2, previously called Zsig51; tested as monomer (protein)
chain: B1 chain 1
B5: in [8], the “effect on serum IL-6 levels” value is recorded as “neither of these monomers had any effect” and the “effect on serum TNFα levels” value is reported as “neither of these monomers had any effect”.

Values taken from patent US20040138113A1, “Use of corticotroph-derived glycoprotein hormone to treat inflammation and potentiate glucocorticoid action” (priority 2002, published 2004).
